T1: canine CD20 ECD2 peptide (canine)
T1 peptide: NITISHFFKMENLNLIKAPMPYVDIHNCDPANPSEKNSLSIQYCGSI


Target: T1, canine CD20 ECD2 peptide
Experiment: ELISA on canine CD20 ECD2 peptide

binding result | Binder
binds | 1E4-cIgGB with G34 to Y substitution in VL (antibody, V domains shown, Whole antibody (heavy plus light chains) made 'using the above procedures') VH: EVQLVESGGGLVKPGGSLKLSCAASGFTFSDYGMLWVRQAPEKGLEWIAYISSGSSTIYYADRVKGRFTISRDNAKNTLFLQMTSLRSEDTAMYYCSTGTFAYWGQGTPVTVSS VL: DVVMTQNPLSLPVSLGDQASISCRSSQSLIYNNYNTYLHWYRQKPGQSPKLLIYKVSNRFSGVPDRFSGSGSGTDFTLKISRVEAEDLGVYFCSQSTHVPFTFGSGTKLEIKR
binds | 1E4-cIgGB with N33 to F substitution in VL (antibody, V domains shown, Whole antibody (heavy plus light chains) made 'using the above procedures') VH: EVQLVESGGGLVKPGGSLKLSCAASGFTFSDYGMLWVRQAPEKGLEWIAYISSGSSTIYYADRVKGRFTISRDNAKNTLFLQMTSLRSEDTAMYYCSTGTFAYWGQGTPVTVSS VL: DVVMTQNPLSLPVSLGDQASISCRSSQSLIYNFGNTYLHWYRQKPGQSPKLLIYKVSNRFSGVPDRFSGSGSGTDFTLKISRVEAEDLGVYFCSQSTHVPFTFGSGTKLEIKR
binds | 1E4-cIgGB with G34 to F substitution in VL (antibody, V domains shown, Whole antibody (heavy plus light chains) made 'using the above procedures') VH: EVQLVESGGGLVKPGGSLKLSCAASGFTFSDYGMLWVRQAPEKGLEWIAYISSGSSTIYYADRVKGRFTISRDNAKNTLFLQMTSLRSEDTAMYYCSTGTFAYWGQGTPVTVSS VL: DVVMTQNPLSLPVSLGDQASISCRSSQSLIYNNFNTYLHWYRQKPGQSPKLLIYKVSNRFSGVPDRFSGSGSGTDFTLKISRVEAEDLGVYFCSQSTHVPFTFGSGTKLEIKR
binds | 1E4-cIgGB with G34 to V substitution in VL (antibody, V domains shown, Whole antibody (heavy plus light chains) made 'using the above procedures') VH: EVQLVESGGGLVKPGGSLKLSCAASGFTFSDYGMLWVRQAPEKGLEWIAYISSGSSTIYYADRVKGRFTISRDNAKNTLFLQMTSLRSEDTAMYYCSTGTFAYWGQGTPVTVSS VL: DVVMTQNPLSLPVSLGDQASISCRSSQSLIYNNVNTYLHWYRQKPGQSPKLLIYKVSNRFSGVPDRFSGSGSGTDFTLKISRVEAEDLGVYFCSQSTHVPFTFGSGTKLEIKR
binds | 1E4-cIgGB with N33 to T substitution in VL (antibody, V domains shown, Whole antibody (heavy plus light chains) made 'using the above procedures') VH: EVQLVESGGGLVKPGGSLKLSCAASGFTFSDYGMLWVRQAPEKGLEWIAYISSGSSTIYYADRVKGRFTISRDNAKNTLFLQMTSLRSEDTAMYYCSTGTFAYWGQGTPVTVSS VL: DVVMTQNPLSLPVSLGDQASISCRSSQSLIYNTGNTYLHWYRQKPGQSPKLLIYKVSNRFSGVPDRFSGSGSGTDFTLKISRVEAEDLGVYFCSQSTHVPFTFGSGTKLEIKR
binds | 1E4-cIgGB with N33 to V substitution in VL (antibody, V domains shown, Whole antibody (heavy plus light chains) made 'using the above procedures') VH: EVQLVESGGGLVKPGGSLKLSCAASGFTFSDYGMLWVRQAPEKGLEWIAYISSGSSTIYYADRVKGRFTISRDNAKNTLFLQMTSLRSEDTAMYYCSTGTFAYWGQGTPVTVSS VL: DVVMTQNPLSLPVSLGDQASISCRSSQSLIYNVGNTYLHWYRQKPGQSPKLLIYKVSNRFSGVPDRFSGSGSGTDFTLKISRVEAEDLGVYFCSQSTHVPFTFGSGTKLEIKR
binds | 1E4-cIgGB with N33 to H substitution in VL (antibody, V domains shown, Whole antibody (heavy plus light chains) made 'using the above procedures') VH: EVQLVESGGGLVKPGGSLKLSCAASGFTFSDYGMLWVRQAPEKGLEWIAYISSGSSTIYYADRVKGRFTISRDNAKNTLFLQMTSLRSEDTAMYYCSTGTFAYWGQGTPVTVSS VL: DVVMTQNPLSLPVSLGDQASISCRSSQSLIYNHGNTYLHWYRQKPGQSPKLLIYKVSNRFSGVPDRFSGSGSGTDFTLKISRVEAEDLGVYFCSQSTHVPFTFGSGTKLEIKR
binds | 1E4-cIgGB with G34 to H substitution in VL (antibody, V domains shown, Whole antibody (heavy plus light chains) made 'using the above procedures') VH: EVQLVESGGGLVKPGGSLKLSCAASGFTFSDYGMLWVRQAPEKGLEWIAYISSGSSTIYYADRVKGRFTISRDNAKNTLFLQMTSLRSEDTAMYYCSTGTFAYWGQGTPVTVSS VL: DVVMTQNPLSLPVSLGDQASISCRSSQSLIYNNHNTYLHWYRQKPGQSPKLLIYKVSNRFSGVPDRFSGSGSGTDFTLKISRVEAEDLGVYFCSQSTHVPFTFGSGTKLEIKR
binds | 1E4-cIgGB with N33 to Y substitution in VL (antibody, V domains shown, Whole antibody (heavy plus light chains) made 'using the above procedures') VH: EVQLVESGGGLVKPGGSLKLSCAASGFTFSDYGMLWVRQAPEKGLEWIAYISSGSSTIYYADRVKGRFTISRDNAKNTLFLQMTSLRSEDTAMYYCSTGTFAYWGQGTPVTVSS VL: DVVMTQNPLSLPVSLGDQASISCRSSQSLIYNYGNTYLHWYRQKPGQSPKLLIYKVSNRFSGVPDRFSGSGSGTDFTLKISRVEAEDLGVYFCSQSTHVPFTFGSGTKLEIKR
binds | 1E4-cIgGB with G34 to E substitution in VL (antibody, V domains shown, Whole antibody (heavy plus light chains) made 'using the above procedures') VH: EVQLVESGGGLVKPGGSLKLSCAASGFTFSDYGMLWVRQAPEKGLEWIAYISSGSSTIYYADRVKGRFTISRDNAKNTLFLQMTSLRSEDTAMYYCSTGTFAYWGQGTPVTVSS VL: DVVMTQNPLSLPVSLGDQASISCRSSQSLIYNNENTYLHWYRQKPGQSPKLLIYKVSNRFSGVPDRFSGSGSGTDFTLKISRVEAEDLGVYFCSQSTHVPFTFGSGTKLEIKR

More lines, now with the values behind:

Binder | binding result
chimeric anti-canine CD20 antibody 1E4-cIgGB (antibody, V domains shown, also called unmodified (WT) 1E4-cIgGB; 1E4-cIGB) VH: EVQLVESGGGLVKPGGSLKLSCAASGFTFSDYGMLWVRQAPEKGLEWIAYISSGSSTIYYADRVKGRFTISRDNAKNTLFLQMTSLRSEDTAMYYCSTGTFAYWGQGTPVTVSS VL: DVVMTQNPLSLPVSLGDQASISCRSSQSLIYNNGNTYLHWYRQKPGQSPKLLIYKVSNRFSGVPDRFSGSGSGTDFTLKISRVEAEDLGVYFCSQSTHVPFTFGSGTKLEIKR | binds
1E4-cIgGB with N33 to L substitution in VL (antibody, V domains shown, Whole antibody (heavy plus light chains) made 'using the above procedures') VH: EVQLVESGGGLVKPGGSLKLSCAASGFTFSDYGMLWVRQAPEKGLEWIAYISSGSSTIYYADRVKGRFTISRDNAKNTLFLQMTSLRSEDTAMYYCSTGTFAYWGQGTPVTVSS VL: DVVMTQNPLSLPVSLGDQASISCRSSQSLIYNLGNTYLHWYRQKPGQSPKLLIYKVSNRFSGVPDRFSGSGSGTDFTLKISRVEAEDLGVYFCSQSTHVPFTFGSGTKLEIKR | binds
1E4-cIgGB with N33 to P substitution in VL (antibody, V domains shown, Whole antibody (heavy plus light chains) made 'using the above procedures') VH: EVQLVESGGGLVKPGGSLKLSCAASGFTFSDYGMLWVRQAPEKGLEWIAYISSGSSTIYYADRVKGRFTISRDNAKNTLFLQMTSLRSEDTAMYYCSTGTFAYWGQGTPVTVSS VL: DVVMTQNPLSLPVSLGDQASISCRSSQSLIYNPGNTYLHWYRQKPGQSPKLLIYKVSNRFSGVPDRFSGSGSGTDFTLKISRVEAEDLGVYFCSQSTHVPFTFGSGTKLEIKR | binds
1E4-cIgGB with G34 to R substitution in VL (antibody, V domains shown, Whole antibody (heavy plus light chains) made 'using the above procedures') VH: EVQLVESGGGLVKPGGSLKLSCAASGFTFSDYGMLWVRQAPEKGLEWIAYISSGSSTIYYADRVKGRFTISRDNAKNTLFLQMTSLRSEDTAMYYCSTGTFAYWGQGTPVTVSS VL: DVVMTQNPLSLPVSLGDQASISCRSSQSLIYNNRNTYLHWYRQKPGQSPKLLIYKVSNRFSGVPDRFSGSGSGTDFTLKISRVEAEDLGVYFCSQSTHVPFTFGSGTKLEIKR | binds
1E4-cIgGB with G34 to L substitution in VL (antibody, V domains shown, Whole antibody (heavy plus light chains) made 'using the above procedures') VH: EVQLVESGGGLVKPGGSLKLSCAASGFTFSDYGMLWVRQAPEKGLEWIAYISSGSSTIYYADRVKGRFTISRDNAKNTLFLQMTSLRSEDTAMYYCSTGTFAYWGQGTPVTVSS VL: DVVMTQNPLSLPVSLGDQASISCRSSQSLIYNNLNTYLHWYRQKPGQSPKLLIYKVSNRFSGVPDRFSGSGSGTDFTLKISRVEAEDLGVYFCSQSTHVPFTFGSGTKLEIKR | binds
1E4-cIgGB with N33 to E substitution in VL (antibody, V domains shown, Whole antibody (heavy plus light chains) made 'using the above procedures') VH: EVQLVESGGGLVKPGGSLKLSCAASGFTFSDYGMLWVRQAPEKGLEWIAYISSGSSTIYYADRVKGRFTISRDNAKNTLFLQMTSLRSEDTAMYYCSTGTFAYWGQGTPVTVSS VL: DVVMTQNPLSLPVSLGDQASISCRSSQSLIYNEGNTYLHWYRQKPGQSPKLLIYKVSNRFSGVPDRFSGSGSGTDFTLKISRVEAEDLGVYFCSQSTHVPFTFGSGTKLEIKR | binds
1E4-cIgGB with G34 to I substitution in VL (antibody, V domains shown, Whole antibody (heavy plus light chains) made 'using the above procedures') VH: EVQLVESGGGLVKPGGSLKLSCAASGFTFSDYGMLWVRQAPEKGLEWIAYISSGSSTIYYADRVKGRFTISRDNAKNTLFLQMTSLRSEDTAMYYCSTGTFAYWGQGTPVTVSS VL: DVVMTQNPLSLPVSLGDQASISCRSSQSLIYNNINTYLHWYRQKPGQSPKLLIYKVSNRFSGVPDRFSGSGSGTDFTLKISRVEAEDLGVYFCSQSTHVPFTFGSGTKLEIKR | binds
1E4-cIgGB with N33 to I substitution in VL (antibody, V domains shown, Whole antibody (heavy plus light chains) made 'using the above procedures') VH: EVQLVESGGGLVKPGGSLKLSCAASGFTFSDYGMLWVRQAPEKGLEWIAYISSGSSTIYYADRVKGRFTISRDNAKNTLFLQMTSLRSEDTAMYYCSTGTFAYWGQGTPVTVSS VL: DVVMTQNPLSLPVSLGDQASISCRSSQSLIYNIGNTYLHWYRQKPGQSPKLLIYKVSNRFSGVPDRFSGSGSGTDFTLKISRVEAEDLGVYFCSQSTHVPFTFGSGTKLEIKR | binds
1E4-cIgGB with N33 to A substitution in VL (antibody, V domains shown, Whole antibody (heavy plus light chains) made 'using the above procedures') VH: EVQLVESGGGLVKPGGSLKLSCAASGFTFSDYGMLWVRQAPEKGLEWIAYISSGSSTIYYADRVKGRFTISRDNAKNTLFLQMTSLRSEDTAMYYCSTGTFAYWGQGTPVTVSS VL: DVVMTQNPLSLPVSLGDQASISCRSSQSLIYNAGNTYLHWYRQKPGQSPKLLIYKVSNRFSGVPDRFSGSGSGTDFTLKISRVEAEDLGVYFCSQSTHVPFTFGSGTKLEIKR | binds
1E4-cIgGB with N33 to R substitution in VL (antibody, V domains shown, Whole antibody (heavy plus light chains) made 'using the above procedures') VH: EVQLVESGGGLVKPGGSLKLSCAASGFTFSDYGMLWVRQAPEKGLEWIAYISSGSSTIYYADRVKGRFTISRDNAKNTLFLQMTSLRSEDTAMYYCSTGTFAYWGQGTPVTVSS VL: DVVMTQNPLSLPVSLGDQASISCRSSQSLIYNRGNTYLHWYRQKPGQSPKLLIYKVSNRFSGVPDRFSGSGSGTDFTLKISRVEAEDLGVYFCSQSTHVPFTFGSGTKLEIKR | binds
1E4-cIgGB with N33 to Q substitution in VL (antibody, V domains shown, Whole antibody (heavy plus light chains) made 'using the above procedures') VH: EVQLVESGGGLVKPGGSLKLSCAASGFTFSDYGMLWVRQAPEKGLEWIAYISSGSSTIYYADRVKGRFTISRDNAKNTLFLQMTSLRSEDTAMYYCSTGTFAYWGQGTPVTVSS VL: DVVMTQNPLSLPVSLGDQASISCRSSQSLIYNQGNTYLHWYRQKPGQSPKLLIYKVSNRFSGVPDRFSGSGSGTDFTLKISRVEAEDLGVYFCSQSTHVPFTFGSGTKLEIKR | binds
1E4-cIgGB with G34 to P substitution in VL (antibody, V domains shown, Whole antibody (heavy plus light chains) made 'using the above procedures') VH: EVQLVESGGGLVKPGGSLKLSCAASGFTFSDYGMLWVRQAPEKGLEWIAYISSGSSTIYYADRVKGRFTISRDNAKNTLFLQMTSLRSEDTAMYYCSTGTFAYWGQGTPVTVSS VL: DVVMTQNPLSLPVSLGDQASISCRSSQSLIYNNPNTYLHWYRQKPGQSPKLLIYKVSNRFSGVPDRFSGSGSGTDFTLKISRVEAEDLGVYFCSQSTHVPFTFGSGTKLEIKR | binds

From US20170355775A1 (ELANCO TIERGESUNDHEIT, published 2017)
